From paper PMC7642186

Target: S3–4 single-chain TCR variant (scTv) of the A6 TCR
Experiment: SPR

Tax P6A variant presented by HLA-A2 (from UniProt P61769) (peptide-MHC)
Kd: 5 µM
